Changes are numbered by the printed parent chain.
B1: antibody D105N_G2_YTE (antibody)
heavy: QVQLVQSGAEVKKPGASVKVSCKASGYTFTNHYMHWVRQAPGQGLEWMGIINPISGSTSNAQKFQGRVTMTRDTSTSTVYMELSSLRSEDTAVYYCARDIVDAFNFWGQGTMVTVSSASTKGPSVFPLAPCSRSTSESTAALGCLVKDYFPEPVTVSWNSGALTSGVHTFPAVLQSSGLYSLSSVVTVPSSNFGTQTYTCNVDHKPSNTKVDKTVERKCCVECPPCPAPPVAGPSVFLFPPKPKDTLYITREPEVTCVVVDVSHEDPEVQFNWYVDGVEVHNAKTKPREEQFNSTFRVVSVLTVVHQDWLNGKEYKCKVSNKGLPAPIEKTISKTKGQPREPQVYTLPPSREEMTKNQVSLTCLVKGFYPSDIAVEWESNGQPENNYKTTPPMLDSDGSFFLYSKLTVDKSRWQQGNVFSCSVMHEALHNHYTQKSLSLSPGK
light: AIQLTQSPSSLSASVGDRVTITCRASQGISSALVWYQQKPGKAPKLLIYDASSLESGVPSRFSGSGSGTDFTLTISSLQPEDFATYYCQQFNDYFTFGPGTKVDIK
B2: antibody I100Y_IgG4PE_R409K_LS (antibody)
heavy: QVQLVQSGAEVKKPGASVKVSCKASGYTFTNHYMHWVRQAPGQGLEWMGIINPISGSTSNAQKFQGRVTMTRDTSTSTVYMELSSLRSEDTAVYYCARDYVDAFDFWGQGTMVTVSSASTKGPSVFPLAPCSRSTSESTAALGCLVKDYFPEPVTVSWNSGALTSGVHTFPAVLQSSGLYSLSSVVTVPSSSLGTKTYTCNVDHKPSNTKVDKRVESKYGPPCPPCPAPEFEGGPSVFLFPPKPKDTLMISRTPEVTCVVVDVSQEDPEVQFNWYVDGVEVHNAKTKPREEQFNSTYRVVSVLTVLHQDWLNGKEYKCKVSNKGLPSSIEKTISKAKGQPREPQVYTLPPSQEEMTKNQVSLTCLVKGFYPSDIAVEWESNGQPENNYKTTPPVLDSDGSFFLYSKLTVDKSRWQEGNVFSCSVLHEALHSHYTQKSLSLSLGK
light: B1 light
B3: antibody I100A_G2_LS (antibody)
heavy: B1 heavy with I100A, N105D, Y248M, T250S, E252T, M424L, N430S
light: B1 light
B4: antibody I100H_G2_YTE (antibody)
heavy: B1 heavy with I100H, N105D
light: B1 light
B5: antibody I100A_IgG4PE_R409K_LS (antibody)
heavy: B2 heavy with Y100A
light: B1 light
B6: antibody I100H_G2_LS (antibody)
heavy: B1 heavy with I100H, N105D, Y248M, T250S, E252T, M424L, N430S
light: B1 light
B7: antibody I100A_G2_YTE (antibody)
heavy: B1 heavy with I100A, N105D
light: B1 light
B8: antibody D105N_G2_LS (antibody)
heavy: B1 heavy with Y248M, T250S, E252T, M424L, N430S
light: B1 light
B9: antibody I100Y_G2_LS (antibody)
heavy: B1 heavy with I100Y, N105D, Y248M, T250S, E252T, M424L, N430S
light: B1 light
B10: antibody I100H_IgG4PE_R409K_LS (antibody)
heavy: B2 heavy with Y100H
light: B1 light
B11: antibody I100Y_G2_YTE (antibody)
heavy: B1 heavy with I100Y, N105D
light: B1 light
B12: antibody D105N_IgG4PE_R409K_LS (antibody)
heavy: B2 heavy with Y100I, D105N
light: B1 light

biological target: Recombinant Human FGF-23 (R&D Systems, Cat No. 2604-FG-025/CF) (human) (UniProt Q9GZV9); experiment: cell-based or functional assay
Sequence (Q9GZV9 25-251 limits assumed): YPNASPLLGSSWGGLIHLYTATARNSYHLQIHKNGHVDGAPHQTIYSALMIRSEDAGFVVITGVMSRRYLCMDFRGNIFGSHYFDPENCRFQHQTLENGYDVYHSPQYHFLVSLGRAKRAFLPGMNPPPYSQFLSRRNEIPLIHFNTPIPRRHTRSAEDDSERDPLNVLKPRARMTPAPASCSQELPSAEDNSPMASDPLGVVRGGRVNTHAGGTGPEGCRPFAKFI

Binder | FGF23 neutralizing activity IC50 (luciferase promoter assay)
B1 | 12.4 ng/mL
B2 | 2.9 ng/mL
B3 | 2.4 ng/mL
B4 | 8.9 ng/mL
B5 | 6.6 ng/mL
B6 | 13 ng/mL
B7 | 5 ng/mL
B8 | 12.4 ng/mL
B9 | 4.4 ng/mL
B10 | 13.1 ng/mL
B11 | 2.9 ng/mL
B12 | 11.7 ng/mL

From US20250163140A1
